In patent CN112010972A (REYOUNG SUZHOU BIOPHARMACEUTICAL CO LTD, dated 2020):

B1: 抗LAG-3人鼠嵌合抗体 17E3VL-17E3VH (antibody, V domains shown)
VH: EVMLVESGGGLVKPGGSLKLSCAASGFTFITYAMSWVRQTPEKRLEWVASINNGGTHYPDTMKGRFTISRDNARNILYLQMSSLRSEDTAMYYCARSYNGIPHYFDYWGQGTTLTVSS
VL: DILMTQTPASLAVSLGQRATISCRTSESIDNYGVSFMNWFQQKPGQPPRLLIYAASNQGSGVPARFSGSGSGADFSLNIHPMEEDDSALYFCQQSKEVPFTFGSGTKLEIKR
B2: 抗LAG-3人鼠嵌合抗体 29VL-17E3VH (antibody, V domains shown)
VH: B1 VH
VL: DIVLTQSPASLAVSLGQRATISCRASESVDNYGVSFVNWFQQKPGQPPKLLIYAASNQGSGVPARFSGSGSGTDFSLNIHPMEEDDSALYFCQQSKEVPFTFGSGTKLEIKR
B3: 抗LAG-3人鼠嵌合抗体 78H3VL-78H3VH (antibody, V domains shown)
VH: EVQLQQSGPVLAKPGASVKMSCKTSGYTLTDYYMNWVKQSHGKSLEWIGIINPYNGDTSYNQRFKGKATLTVDKSSSTAYMELNSLTSEDSAVYYCARDDGYYVDYFDYWGQGTTLTVSS
VL: DIQMTQSPSSLSASLGERVSLTCRASQDIGNSLNWLQQEPDGTIKRLIYATSSLDSGVPKRFSGSRSGSDYSLTISSLESEDFVDYYCLQHASSPPTFGAGTKLELKR

Biological target: T1, 带有His标签的人LAG-3蛋白的胞外结构域(Acro) (human, UniProt P18627 23-450)
T1 construct: extracellular domain; Bought protein (Acro); also called Human-LAG-3-His; 抗原; not shown: His tag
T1 sequence (looked up): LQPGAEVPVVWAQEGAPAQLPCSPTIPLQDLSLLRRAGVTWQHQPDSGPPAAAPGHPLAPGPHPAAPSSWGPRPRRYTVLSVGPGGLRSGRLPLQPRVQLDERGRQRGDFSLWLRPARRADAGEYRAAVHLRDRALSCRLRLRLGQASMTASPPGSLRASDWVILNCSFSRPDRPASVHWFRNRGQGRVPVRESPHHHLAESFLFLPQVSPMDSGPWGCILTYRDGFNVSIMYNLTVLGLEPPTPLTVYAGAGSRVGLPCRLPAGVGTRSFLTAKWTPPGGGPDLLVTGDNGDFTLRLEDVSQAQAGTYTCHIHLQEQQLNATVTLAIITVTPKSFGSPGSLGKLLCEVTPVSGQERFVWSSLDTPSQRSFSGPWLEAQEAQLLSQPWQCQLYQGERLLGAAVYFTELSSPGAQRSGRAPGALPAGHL
Test: SPR (Biacore), supernatant captured on Protein A chip, 100 nM human LAG-3 as analyte, 1:1 fit

Row | Binder | Kd [pM]
1 | B1 | ~100
2 | B2 | ~100
3 | B3 | ~100
